# Test results as given in patent US8344120B2, “Nucleic acid molecules encoding rage fusion proteins” (TransTech Pharma, Inc., priority 2006, dated 2013).
# B1: TTP-4000: four domain RAGE fusion protein: human RAGE N-terminal sequence (to position 251) linked to human IgG Fc (γ1) without hinge; SEQ ID NO: 34/56 (protein)
# chain: QNITARIGEPLVLKCKGAPKKPPQRLEWKLNTGRTEAWKVLSPQGGGPWDSVARVLPNGSLFLPAVGIQDEGIFRCQAMNRNGKETKSNYRVRVYQIPGKPEIVDSASELTAGVPNKVGTCVSEGSYPAGTLSWHLDGKPLVPNEKGVSVKEQTRRHPETGLFTLQSELMVTPARGGDPRPTFSCSFSPGLPRHRALRTAPIQPRVWEPVPLEEVQLVVEPEGGAVAPPSVFLFPPKPKDTLMISRTPEVTCVVVDVSHEDPEVKFNWYVDGVEVHNAKTKPREEQYNSTYRVVSVLTVLHQDWLNGKEYKCKVSNKALPAPIEKTISKAKGQPREPQVYTLPPSRDELTKNQVSLTCLVKGFYPSDIAVEWESNGQPENNYKTTPPVLDSDGSFFLYSKLTVDKSRWQQGNVFSCSVMHEALHNHYTQKSLSLSPGK
# Key:
# animal model of stroke = experiment: Animal model of stroke (ischemia/reperfusion); format: in vivo, mice; details: treated just prior to reperfusion
# Protocol: For example, the RAGE fusion proteins of the present invention may also be used to treat stroke. […] In this model, the […] of a mouse is ligated and then reperfused to form an infarct. To assess the efficacy of RAGE fusion proteins to treat or prevent stroke, mice were treated with sRAGE or TTP-4000 or control immunoglobulin just prior to reperfusion. […] TTP-4000 was also compared to sRAGE in a disease relevant animal model of stroke. In this model, the […] of a mouse was ligated for 1 hour followed by 23 hours of reperfusion at which point the mice were sacrificed and the area of the infarct in the brain was assessed. […] After the nylon suture had been in place for 1 hour, the animal was re-anesthetized, rectal temperature was recorded and the suture was removed and the incision closed. Infarct volume was determined by anesthetizing the animals with an intraperitoneal injection of sodium pentobarbital (50 mg/kg) and then removing the brains. […] The infarct area in each section was determined with a computer-assisted image analysis system, consisting of a Power Macintosh computer equipped with a Quick Capture frame grabber card, Hitachi CCD camera mounted on a camera stand. […] The images were captured and the total area of infarct was determined over the sections. […] Summing the infarct volumes of the sections calculated the total infarct volume. […]
# mouse model of AD = experiment: APP transgenic mouse model of AD; format: in vivo, mice
# Protocol: Experiments were performed to evaluate whether TTP-4000 could affect amyloid formation and cognitive dysfunction in a mouse model of AD. The experiments utilized transgenic mice expressing the human Swedish mutant amyloid precursor protein (APP) under the control of the PDGF-B chain promoter. Over time, these mice generate high levels of the RAGE ligand, amyloid beta (Aβ).
# The APP mice (male) used in this experiment were designed by microinjection of the human APP gene (with the Swedish and London mutations) into mouse eggs under the control of the platelet-derived growth factor B (PDGF-B) chain gene promoter. The mice were generated on a C57BL/6 background and were developed by Molecular Therapeutics Inc. Animals were fed ad libitum and maintained by brother sister mating. The mice generated from this construct develop amyloid deposits starting at 6 months of age. Animals were aged for 6 months and then maintained for 90 days and sacrificed for amyloid quantification.
# APP transgenic mice were administered vehicle or TTP4000 every other day [qod (i.p.)] for 90 days starting at 6 months of age. At the end of the experiment, animals were sacrificed and examined for Aβ plaque burden in the brain (i.e., plaque number). A 6-month control APP group was used to determine the baseline of amyloid deposits. In addition, at the end of the study, the animals were subjected to behavioral (Morris water maze) analysis. The investigators were blinded to the study compounds. Samples were given to the mice at 0.25 ml/mouse/every other day.
# For histological examination, the animals were anesthetized with an intraperitoneal injection (IP) of sodium pentobarbital (50 mg/kg). The animals were transcardially perfused with 4° C., phosphate-buffered saline (PBS) followed by 4% paraformaldehyde. The brains were removed and placed in 4% paraformaldehyde over night. The brains were processed to paraffin and embedded. Ten serial 30-μm thick sections through the brain were obtained. Sections were subjected to primary antibody overnight at 4° C. (Aβ peptide antibody) in order to detect the amyloid deposits in the brain of the transgenic animals (Guo et al., J. Neurosci., 22:5900-5909 (2002)). Sections were washed in Tris-buffered saline (TBS) and secondary antibody was added and incubated for 1 hour at room temperature. After washing, the sections were incubated as instructed in the Vector ABC Elite kit (Vector Laboratories) and stained with […] (DAB). The reactions were stopped in water and cover-slipped after treatment with xylene. The amyloid area in each section was determined with a computer-assisted image analysis system, consisting of a Power Macintosh computer equipped with a Quick Capture frame grabber card, Hitachi CCD camera mounted on an Olympus microscope and camera stand. NIH Image Analysis Software, v. 1.55 was used. The images were captured and the total area of amyloid was determined over the ten sections. A single operator blinded to treatment status performed all measurements. Summing the amyloid volumes of the sections and dividing by the total number of sections was done to calculate the amyloid volume.
# For quantitative analysis, an enzyme-linked immunosorbent assay (ELISA) was used to measure the levels of human total Aβ, Aβtotal and Aβ1-42 in the brains of APP transgenic mice (Biosource International, Camarillo, Calif.). Aβtotal and Aβ1-42 were extracted from mouse brains by guanidine hydrochloride and quantified as described by the manufacturer. […]
# [1] = treated for 3 months, qod i.p., versus vehicle and human IgG1
molecule,measurement,setting,value
B1,reduction in infarct volume compared to sRAGE,animal model of stroke,significantly greater reduction in infarct volume
same,inflammatory cytokines IL-1 and TNF-α,mouse model of AD; data not shown,can reduce the inflammatory cytokines IL-1 and TNF-α
same,Aβ plaques in the brain,mouse model of AD; [1],fewer Aβ plaques
same,cognitive dysfunction (Morris water maze),mouse model of AD; [1],less cognitive dysfunction
